Data set [1] concerns the target T1, AidB (Escherichia coli, UniProt P33224 1-541).
T1 sequence: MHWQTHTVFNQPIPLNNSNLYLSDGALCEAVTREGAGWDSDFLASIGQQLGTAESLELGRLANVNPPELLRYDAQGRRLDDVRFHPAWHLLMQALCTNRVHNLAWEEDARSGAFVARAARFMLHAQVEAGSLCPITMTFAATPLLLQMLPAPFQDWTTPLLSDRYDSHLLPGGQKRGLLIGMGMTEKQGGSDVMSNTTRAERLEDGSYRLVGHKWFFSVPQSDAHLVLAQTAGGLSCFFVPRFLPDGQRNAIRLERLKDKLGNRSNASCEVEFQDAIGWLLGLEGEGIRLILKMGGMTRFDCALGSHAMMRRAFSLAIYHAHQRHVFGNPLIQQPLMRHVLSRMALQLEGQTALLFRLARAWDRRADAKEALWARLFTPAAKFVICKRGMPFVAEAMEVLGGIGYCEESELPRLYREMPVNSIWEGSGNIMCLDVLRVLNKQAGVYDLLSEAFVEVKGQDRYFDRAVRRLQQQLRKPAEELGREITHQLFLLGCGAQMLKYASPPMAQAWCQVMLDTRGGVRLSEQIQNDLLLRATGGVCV
Description: EMSA. (In general: In EMSA bound probe runs differently from free probe, usually more slowly.)

The target in data set [2] is T1, AidB. As to the kind of experiment: competition.
The target of data set [3] is T1, AidB. Description: competition. This is another data set of the same source.

B1: rrnB P1wt (+UP), biotinylated probe (dsDNA)
DNA 1: AGAAAATTATTTTAAATTTCCTCTTGTCAGGCCGGAATAACTCCCTATAAT
DNA 2: ATTATAGGGAGTTATTCCGGCCTGACAAGAGGAAATTTAAAATAATTTTCT
For B1, in data set [1], the binding result is on record as “binds”.

B2: rrnB P1wt (+UP), unlabelled competitor (dsDNA)
DNA 1: AGAAAATTATTTTAAATTTCCTCTTGTCAGGCCGGAATAACTCCCTATAAT
DNA 2: ATTATAGGGAGTTATTCCGGCCTGACAAGAGGAAATTTAAAATAATTTTCT
Turning to B2, in data set [2], the binding result is recorded as “binds”.

B3: rrnB P1ΔUP (-UP), unlabelled competitor (dsDNA)
DNA 1: CCTCTTGTCAGGCCGGAATAACTCCCTATAAT
DNA 2: ATTATAGGGAGTTATTCCGGCCTGACAAGAGG
Regarding B3, the binding result in data set [3] is “no binding”.

The record behind these values is article PMC3162126.
